Laboratory results: the DeepSol protein solubility set

Test: soluble on expression in E. coli; label from the status in PepcDB or PDB records

Soluble on expression in E. coli, not soluble:
MGSDKIHHHHHHMIYIDKNESPVTPLDEKTMTSIISATPYNLYPDAAYEQFKEAYAKFYGLSPEQIIAGNGSDELIQKLMLIMPEGPALTLNPDFFMYQAYAAQVNREIAFVDAGSDLTFDLETILTKIDEVQPSFFIMSNPHNPSGKQFDTAFLTAIADKMKALNGYFVIDEAYLDYGTAYDVELAPHILRMRTLSKAFGIAGLRLGVLISTAGTIKHIQKIEHPYPLNVFTLNIATYIFRHREETRVFLTMQRQLAEQLKQIFDTHVADKMSVFPSNANFVLTKGSAAHQLGQYVYEQGFKPRFYDEPVMKGYVRYSIATASQLKQLEEIVKEWSAKYDLSKTTKHS, MVFDAIVVTDLQGFIIDWNKGSETLYGYSKEQAIGQPVNMLHVPGDTEHITSEVISAVENQGKWTGEIRMLHKDGHIGWIESMCVPIYGENYQMVGALGINRDITKRKKELEHHHHHH, SNPAAEAEFNILLATDSYKVTHYKQYPPNTSKVYSYFECREKKTENSKLRKVKYEETVFYGLQYILNKYLKGKVVTKEKIQEAKDVYKEHFQDDVFNEKGWNYILEKYDGHLPIEIKAVPEGFVIPRGNVLFTVENTDPECYWLTNWIETILVQSWYPITVATNSREQKKILAKYLLETSGNLDGLEYKLHDFGYRGVSSQETAGIGASAHLVNFKGTDTVAGLALIKKYYGTKDPVPGYSVPAAEHSTITAWGKDHEKDAFEHIVTQFSSVPVSVVSDSYDIYNACEKIWGEDLRHLIVSRSTQAPLIIRPDSGNPLDTVLKVLEILGKKFPVTENSKGYKLLPPYLRVIQGDGVDINTLQEVCVLY, MKIRSTALVKGFRQSTPYVNAHRGKTMVIMLGGEAVAHNNFGNIINDIALMHSLGIKVVVVYGARPQINQLLEKQDLTTPYHKNIRITDEAALSVVMQAAGQLQLAITARLSMSLNNTPMAGTQLNVVSGNFVIAQPLGVDDGVDYCHSGRIRRIDTDAINRTLDQGSIVLLGPIASSVTGECFNLLSEEVATQLAIKLGADKLIGFCSEQGVIDDNGNAVAELLPIEAEHVIKTLSENHASDSDYNTGTLRFLKGSIAACRAGVPRSHLISYKVDGALIQELFSFDGIGTQVVMASAEQVRQAGIDDIGGILELIHPLEEQGILVRRSREQLEQEIGKFTIIEKDGLIIGCAALYPYSEERKAEMACVAIHPDYRDGNRGLLLLNYMKHRSKSENINQIFVLTTHSLHWFREQGFYEVGVDYLPGAKQGLYNFQRKSKILALDL, MNDSSLKKALSQNSISSAPRRPQKLGSVQSIVRNESDKNVPSPFEEITLSDDDEEAPAKKPVKCATCARDMTLWMNSRRDIHVKVCKAKQSEKEKETTRKSKTLTETIEKDDQVYEKPSSKTHLFEKPFEKPQELPKSWELSKNNVKFARIAEDDEENRKRKRPRSFAVVELAPKKCQCEVLTTLHSRFIDEFHSKSIKNQKKREEGVTEHAFQMKKMIEKISRYEQLSSDMQKVLDDNSEQLPTHIFITCSDGHRVKCQTMILKHRTSLIRLNPKSENIQVEHTKEVVKAWISFVFTANIEWNDDDKDGVRDLASKYGPVGLDLIVKNDKEEDLEKVDDVEDVVEPEAKIDSVVADPVEIEPTASHSDPIELDKSVNYFTSDDPFFGFGKAVENVEDDAEQIMEDKPHESVHSTPQKPTTNVTMDSFDEWSNQPSTNLPTTSNVITPIRNITSKAVFGSHVKILKTNDITPMPAFDSMEEAELKERMKEIGMRPKGKKAMIQILKKAYITLHPEICSGTPTIRPLVRSASLEKVSEQGGKGGRKTIKTKTLSERMIASPKKVSPKKQGVKNAISDETSKNVSNVSDDLDEDNDGDKTLNISNDEREVGKIWGDDVGDDEEDDDDMSASSTSGKHDLSALKLAFLTWLRSDQNTVLHEHILSLQPVSLEEMLIRLEKADGPLGRIGKGKLVKLLEMLKITYQLPQKTGRARGGYKRRL, MASKPLQFVVVERKLNVGKNAGKVMQIARPTGRHRVDFRSFCERVSKSTTFNRQEVEAVLNYATEIAKDIVSNGDIVEFGDLGTLMPSFKSKAVEQGVKFNANVHIEKPVVLFQPSKKYFTLTDVSYEQTTARPKKGTKPAPKPDTGSGGNSGEGI, MGSDKIHHHHHHMSHTEVKLKIPFGNKLLDAVCLVPNKSLTYGIILTHGASGDMNLPHLMSLASHLASHGFFCLRFTCKGLNIVHRIKAYKSVLNYLKTSGEYKLAGVFLGGRSMGSRAAASVMCHIEPDDGDDFVRGLICISYPLHHPKQQHKLRDEDLFRLKEPVLFVSGSADEMCEKNLLEKVAQKMQAPHKIHWIEKANHSMAVKGRSTNDVFKEINTQILFWIQEITEMDKKCH, MAYEDLREFIGRLEDKGELARVKHEVSPILEMSEVADRTVKAGGKALLFERPKGYDIPVFMNAFGTERRMKLALEVERLEEIGERLLSALEFRPSSFMDALKGVGMLKDFMSFIPKKTGKAPCKEVVAESLDKFPILKCWPKDAGRFITFPVVITKDPETGEMNAGMYRMQVFDGKTTGMHWQIHKHGAEHFRKMAEKGGGKIEVAVAIGVDPATLYAATAPLPSGISEFMFAGFIRKERLKVTECETVDLLVPANAEIILEGYVRVDEMRVEGPFGDHTGYYTPPEPYPVFHITHITHRENPIYHATVVGKPPMEDAWLGKATERIFLPILRMMHPEIVDINLPVEGAFHNLAIVSIKKRYPGQAKKVMYAIWGTGMLSLTKIVVVVDDDVNVHDMREVVWAVTSRFDPARDVVILPPSPTDSLDHSAYIPNLAGKLGIDATKKWRDEGYEREWPDVVEMDAETKRKVDAIWNEIRNMVLAAALEHHHHHH, MFQAINASGSGLTTARKWMQVTSNNIVNANTPAAPGADLYERRSVVLESNNSFASMLDGAPTNGVKIKSIEADKTENLVYDPTHPHANEEGYVRYPNIDVTAEMTNVMVAQKMYEANTSVLNANKKMLDKDLEIGRG

Soluble on expression in E. coli, soluble:
MSLNYEGRVLVVDDVNDIRMLVGHMVQNSGLKVEYGRNGLEALDKVTDAINDGDPYDLVLIDIHMPVMNGSEAIKQIRSSGIHFPVVAMTAATMKGVRDQLISQGFTNVLEKPINHDALLKVLDAHLTAVSEPIQVETTDAHDNDASQQDESSERQHFLLVEDDVDAADITALLLESLGIDVHVAHSGQECMDVFNQRNDWSKVLMDLNLPDASGLNLAKEIHKTSPQLELVLLSGEEPDAQSMADADITKFILKPINKKVLSDLVEEGHHHHHH, MSLNHPSSTPVPPLDATPARALGEFIRAHRERLSPQAVGLPPGPRRRTPGLRREEVAQLCGVSPTWYTWIEQGRPVSASADALARIAVALQLSKAERAYLFELAAQRDPAEPDVAGGDLPPTLAATVAAIATPAYVMDRQWNALAWNTPAAALFSGWLDGEHDRNLLRFTFMSPAARTLIVDWETRARRMAAEFRADSIRHLTDAPTRALIDALTAGSDAFAQYWASQDVFEREGGLREFDHPADGRMVYQQITLKPAHREDLKLVVLVRDEGHHHHHH, MAHHHHHHMWDPFRDIDRIFNRVLPLTGAGSFSSFSRGSWSPAMDLVEKPEGYKLLVDLPGMNREDIQVGIEDNRLCISGNRKSLLKDDEQHLAVFLERGYGRFERCMNLPSPIVEESVKARLRDSVLVVELKKNNSPASSAATSVTIQ, MPLGLFSSGKAQVLCDEKIPGGKKKEPKQLSENKCKGVTLKLDHTRVTIEKQIAEGGFAIVYVASDRKNNKFALKRQFTKDNEKQLEACCREHSFLKQCIGHKNIVEFVDSYTNCLGNGIWECMLLTEYHQKNVLQLMNERISQNQYLTNDEILSIFTDLCEAVSFIHNRPQPIIHRDLKVENVLISSHKPPHYVLCDFGSATTQILSVEKYGVEYVKSEVERNTTMCYRSPEMIDFYSGLEIGLKSDIWALGVLLYRLCFFCVPFEESPLAIQSVNYQFPSVPNIPDEIKVLIYMLLDIDVNRRPSIYQTSVLAFEANHRKPLSEEIQNKKCTDAVPSLKSCIQLMRDGSNPRNKRDSSPRNPEAPPIQSSSKMASLSQQVPSISNISMPSGSGTVETSVAPRLRPKATTVVPNVPSISPVPPVGLPHLRLPSKGSTDETDGSQVRKVPIDFHHRQSFSGEEQLKPAAEADSAGPLSCPLIKPTDLGFTDLDKPALPRDRAQTDGKRRLPHESDIIFQQQHRRNVSDTSQISRSAFKPYSSQQTTSKTSSQVVRSVEDMSQRQNGGSGEWNPFLVAPFSNNSISRKDGQESAFMMDDSHFGMVFDEIRRKEIPAELDSETSSIDSRDPFGAAPFDQLTVSTSSSAQPVSLPPATDEDDERQLLSETDEEEKYEIDEKEEIQTKKDETINEEDSEIDEQRMNDRRRYSYENIDGVGDDASSDSRGKTDRDDSEEEEDDDSRRGGDTSHDEDSQNTVGSEDGEGGSRPLLEDDGLEDDDDHELISSFSSSSTNYPPLFIGTSTPHTQNPITNPFLRDELTPKMIITAPLPTAKNNLDDDWDLGDRWTDRRDTVFERPASEHQNVFAPATLPRQATPLVCRFKPDLPTAAPVSIIPSMSNTSFPEAVRDSDTVPCEPIIGTLISVGAPTDPPPPPLPKKPTEASPTQETTATIPVALGKKEKLLKKEKKKEKKDGKKDKLKLEEYREKGSSEPETDGSEAEIWTNDGATTFSNKKKKKSTFGLRSSHPSIVANDLQFSSPMPPVVKKSSKDKKSSLTGKNASFVNTSFQPEDHDDPTDL, PRGSHMAEYLRLPHSLAMIRLCNPPVNAVSPTVIREVRNGLQKAGSDHTVKAIVICGANGNFCAGADIHGFSAFTPGLALGSLVDEIQRYQKPVLAAIQGVALGGGLELALGCHYRIANAKARVGLPEVTLGILPGARGTQLLPRVVGVPVALDLITSGKYLSADEALRLGILDAVVKSDPVEEAIKFAQKIIDKPIEPRRIFNKPVPSLPNMDSVFAEAIAKVRKQYPGVLAPETCVRSIQASVKHPYEVGIKEEEKLFMYLRASGQAKALQYAFFAEKSANKWSTPSGASWKTASAQPVSSVGVLGLGTMGRGIAISFARVGISVVAVESDPKQLDAAKKIITFTLEKEASRAHQNGQASAKPKLRFSSSTKELSTVDLVVEAVFEDMNLKKKVFAELSALCKPGAFLCTNTSALNVDDIASSTDRPQLVIGTHFFSPAHVMRLLEVIPSRYSSPTTIATVMSLSKKIGKIGVVVGNCYGFVGNRMLAPYYNQGFFLLEEGSKPEDVDGVLEEFGFKMGPFRVSDLAGLDVGWKIRKGQGLTGPSLPPGTPVRKRGNSRYSPLGDMLCEAGRFGQKTGKGWYQYDKPLGRIHKPDPWLSTFLSQYREVHHIEQRTISKEEILERCLYSLINEAFRILEEGMAARPEHIDVIYLHGYGWPRHKGGPMFYAASVGLPTVLEKLQKYYRQNPDIPQLEPSDYLRRLVAQGSPPLKEWQSLAGPHGSKL, GMPKLDLDSIERRIGSVYPGRLNAAMDGRSSLRLGDAGGLSQFGVNLVRLEPGAKSSLRHYHMEQDEFVMVTEGALVLVDDQGEHPMVPGDCAAFPAGDPNGHQFVNRTDAPATFLVVGTRTPTETAYYSDMDMMVKQDASGFAFTRKDGSPLTADQIGDDNE, MGSSHHHHHHSSGLVPRGSHMKKRIGIVGAGTAGLHLGLFLRQHDVDVTVYTDRKPDEYSGLRLLNTVAHNAVTVQREVALDVNEWPSEEFGYFGHYYYVGGPQPMRFYGDLKAPSRAVDYRLYQPMLMRALEARGGKFCYDAVSAEDLEGLSEQYDLLVVCTGKYALGKVFEKQSENSPFEKPQRALCVGLFKGIKEAPIRAVTMSFSPGHGELIEIPTLSFNGMSTALVLENHIGSDLEVLAHTKYDDDPRAFLDLMLEKLGKHHPSVAERIDPAEFDLANSSLDILQGGVVPAFRDGHATLNNGKTIIGLGDIQATVDPVLGQGANMASYAAWILGEEILAHSVYDLRFSEHLERRRQDRVLCATRWTNFTLSALSALPPEFLAFLQILSQSREMADEFTDNFNYPERQWDRFSSPERIGQWCSQFA, LVPEAPAPFEEPLPPEATDQWQDRALCAQTDPEAFFPEKGGSTREAKKICMGCEVRHECLEYALAHDERFGIWGGLSERERRRLKRGII
